Literature values in paper PMC3124085.
pKd: −log10 of the molar value.

Target: HIV-1 Gag p6 p6 (Human immunodeficiency virus 1) (UniProt O93182)
Sequence (O93182 450-500): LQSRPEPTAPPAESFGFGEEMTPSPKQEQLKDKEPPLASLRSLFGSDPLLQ

Sequence of TSG101 UEV (Q99816 1-148): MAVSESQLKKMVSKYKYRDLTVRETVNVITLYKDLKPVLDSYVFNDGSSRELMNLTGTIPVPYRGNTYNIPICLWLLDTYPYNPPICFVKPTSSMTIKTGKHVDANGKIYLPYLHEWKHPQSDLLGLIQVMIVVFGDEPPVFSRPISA

For TSG101 UEV (from UniProt Q99816), the pKd is given as 4.57.
